Reference: US12397037B2, “Methods and compositions for immunomodulation” (CHILDREN'S MEDICAL CENTER CORPORATION, priority 2014, dated 2025)

Columns and labels:
[1] = test system: U251 glioblastoma cells, a melanocyte cell line, Jurkat T lymphocytes, and endothelial cells; assay: Western blot in other cell lines expressing NRP2; assay type: cell-based, human; details: SEMA3F 30 minutes
Protocol: FIGS. 34A-34D depict analysis of intracellular signaling pathway regulated by SEMA3F. FIG. 34A depicts a Western blot of the expression of pAkt, pmTOR and pS6K in U87MG cells treated with SEMA3F or PBS for 60 minutes and. FIG. 34B depicts a Western blot. U87MG cells were transfected with control or Plexin A1-specific siRNA (20 nM). After 48 hours, cells were treated with SEMA3F (640 ng/ml) for 30 and 60 minutes, and were analyzed by Western blot. FIG. 34C depicts NRP2 and Plexin A1 expression analyzed by Western blot with multiple cell lines. FIG. 34D depicts a Western blot of multiple NRP2-expressing cell lines were treated with SEMA3F for 30 minutes. All data presented are representative of 3 independent experiments.
SEMA3F inhibits Akt, mTOR, and S6K phosphorylation. To determine the effect of SEMA3F on intracellular signaling responses, levels of phosphokinases in the NRP2-expressing human glioblastoma cell line U87MG were profiled.
Western blotting: Proteins within each sample were separated by SDS-PAGE and transferred to nitrocellulose membranes. […] After washing with TBS-T, membranes were incubated with the appropriate horseradish peroxidase-conjugated secondary antibody, and immunoreactivity was detected by using ECL detection reagents.

RhoA = RhoA activity, rhotekin pull-down, U87MG cells; assay type: cell-based, human; details: SEMA3F 640 ng/ml, 10 minutes
Protocol: FIG. 30A depicts U87MG cells treated with SEMA3F (640 ng/ml), rapamycin (10 nM) or Torin 1 (10 nM) for 30 minutes. Subsequently, cells were stained with Alexa Fluor 488 phalloidin and Hoechst 33342 to identify F-actin cytoskeleton stress fibers and cellular nuclei, respectively. […] The scale bar indicates 20 μm. FIG. 30B depicts U87MG cells transiently transfected with a pcDNA3.1 empty vector or with a wild type (WT) mTOR plasmid and after 18 hours treated with SEMA3F (640 ng/ml) for 30 minutes. Cells were stained as described above in FIG. 30A. Representative cellular staining is shown; bar graph represents the number of fibers/cell (mean±SD) from 3 independent experiments. FIG. 30C depicts U87MG cells transfected with control siRNA or with raptor- or rictor-specific siRNAs (20 nM). […] The number of stress fibers was evaluated in 3 independent experiments and shown as the mean±SD. […] After 18 hours, the cells were treated with SEMA3F (640 ng/ml) for 10 minutes and RhoA activity was evaluated. FIG. 30E depicts U87MG cells transfected with control siRNA or with raptor- or rictor-specific siRNAs (20 nM), were treated with SEMA3F (640 ng/ml) for 10 minutes and RhoA activity was analyzed. […]
RhoA activity (39) was measured using the rhotekin pulldown assay in U87MG cells transfected with the mTOR overexpression construct (FIG. 30D). […]

B1: SEMA3F: Human recombinant full-length His-Myc-tagged SEMA3F, secreted by transfected 293T cells and purified; class 3 semaphorin, NRP-2 ligand (protein, listed as Homo sapiens)
chain: MLVAGLLLWASLLTGAWPSFPTQDHLPATPRVRLSFKELKATGTAHFFNFLLNTTDYRILLKDEDHDRMYVGSKDYVLSLDLHDINREPLIIHWAASPQRIEECVLSGKDVNGECGNFVRLIQPWNRTHLYVCGTGAYNPMCTYVNRGRRAQATPWTQTQAVRGRGSRATDGALRPMPTAPRQDYIFYLEPERLESGKGKCPYDPKLDTASALINEELYAGVYIDFMGTDAAIFRTLGKQTAMRTDQYNSRWLNDPSFIHAELIPDSAERNDDKLYFFFRERSAEAPQSPAVYARIGRICLNDDGGHCCLVNKWSTFLKARLVCSVPGEDGIETHFDELQDVFVQQTQDVRNPVIYAVFTSSGSVFRGSAVCVYSMADIRMVFNGPFAHKEGPNYQWMPFSGKMPYPRPGTCPGGTFTPSMKSTKDYPDEVINFMRSHPLMYQAVYPLQRRPLVVRTGAPYRLTTIAVDQVDAADGRYEVLFLGTDRGTVQKVIVLPKDDQELEELMLEEVEVFKDPAPVKTMTISSKRQQLYVASAVGVTHLSLHRCQAYGAACADCCLARDPYCAWDGQACSRYTASSKRRSRRQDVRHGNPIRQCRGFNSNANKNAVESVQYGVAGSAAFLECQPRSPQATVKWLFQRDPGDRRREIRAEDRFLRTEQGLLLRALQLSDRGLYSCTATENNFKHVVTRVQLHVLGRDAVHAALFPPLSMSAPPPPGAGPPTPPYQELAQLLAQPEVGLIHQYCQGYWRHVPPSPREAPGAPRSPEPQDQKKPRNRRHHPPDT
modifications: His-Myc tag
notes: Human recombinant full-length His-Myc-tagged SEMA3F, secreted by transfected 293T cells and purified; class 3 semaphorin, NRP-2 ligand
Akt (S473) and S6K phosphorylation [1]: inhibited
RhoA activity partially rescued (by) (RhoA; U87MG cells overexpressing mTOR): 55%
suppression of RhoA activity (RhoA; control pcDNA3.1-transfected U87MG cells): 88%
